We go through one protein from paper PMC10248533 (The Journal of Biological Chemistry, 2023).

This series deals with the molecule itself. Description: native MS; 50 μM protein exchanged into 200 mM ammonium acetate pH 7.4; nano electrospray, Q Exactive UHMR.

B1: AtGet3dΔ1–57 from His8-SUMO-GSx2-AtGet3dΔ1–57 (native mass spectrometry sample) (natural protein, Arabidopsis thaliana, UniProt Q6DYE4 58-455, looked up)
chain: TKFVTFLGKGGSGKTTAAVFAAQHYALAGLSTCLVIHNQDPSAEFLLGSKIGTSPTLINDNLSVIRLETTKMLLEPLKQLKQADARLNMTQGVLEGVVGEELGVLPGMDSIFSMLELERLVGFFRQATRKNHKGKPFDVIIYDGISTEETLRMIGLSSKTRLYAKYLRSLAEKTDLGRLTSPSIMRFVDESMNINSNKSPFDGMTSPAMWDTLERFLETGASAWRDPERFRSFLVMDPNNPMSVKAALRYWGCTVQAGSHVSGAFAISSSHLTSQIPKADFVPLPFASASVPFTITGLDWDKILLDQANSSIRELLSETVSHGTSLTQTVMFDTAKKLVTLFMPGFEKSEIKLYQYRGGSELLIEAGDQRRVIHLPSQIQGKVGGAKFVDRSLIVTMR
notes: Get3d, Arabidopsis thaliana, UniProt Q6DYE4, without the first 57 amino acids (chloroplast transit peptide); Dialysed with Ulp1 after Ni-NTA; the GSx2 linker between SUMO and AtGet3d probably stays on the N-terminus after cleavage (surmised); Copurifies with small molecules of about 750 Da; source: E. coli NiCo21(DE3), purified (Ni-NTA, Ulp1 digestion, Superdex 200 SEC); not shown: His8, …
Consider B1, for which the “stoichiometry N” value worked out at 2.
